One data set concerns the target TrpR (UniProt P0A881 2-108). In words: SPR; Trp; SPR: 1 mM SAM, 0.4 mM CoCl2 or 0.5 mM Trp, 100 ul/min, streptavidin CM5 chip; running buffer, pH and temperature not in material (DNA annealed in 25 mM HEPES pH). On the technique in general: In SPR one partner is held on a chip, and binding of the other changes the refractive index at the surface.
The target of another data set is T1, MetJ (UniProt P0A8U6 2-105, Q45K).
T1 sequence: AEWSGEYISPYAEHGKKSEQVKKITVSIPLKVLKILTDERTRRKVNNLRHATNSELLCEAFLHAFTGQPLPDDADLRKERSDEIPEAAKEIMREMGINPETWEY
In words: SPR; SAM; SPR: 1 mM SAM, 0.4 mM CoCl2 or 0.5 mM Trp, 100 ul/min, streptavidin CM5 chip; running buffer, pH and temperature not in material (DNA annealed in 25 mM HEPES pH 7.4, 200 mM KCl, 5 mM MgCl2). Particulars: protein: recombinant; tags: 8xHis, TEV-cleaved; chain copies: 2; label: 3' biotin on anchor strand S4 (SPR); 5' overhang 14 nt of strand 1, annealed to biotin anchor S4 in SPR.

B1: trpR single site (NR206/NR207) (dsDNA)
DNA 1: CCACGCCCTAAGGTGAGCATAGTGGTACTCGCTAGCGAGTACCTCTGACTTC
DNA 2: GAAGTCAGAGGTACTCGCTAGCGAGTACCACTATGCTC
Consider B1, for which the Kd in the data set with TrpR was determined as 48 nM.

B2: metJ single site (NR139 top/bottom) (dsDNA)
DNA 1: CCACGCCCTAAGGTATGCTAGTTTGAGACGTCTCAAAACAGGA
DNA 2: TCCTGTTTTGAGACGTCTCAAACTAGCAT
As to B2, the Kd with MetJ stood at 4 ± 0.4 nM.

In general, Kd refers to the constant that tells how readily two partners part at equilibrium.

The record behind these values is article PMC13379313, “Clocked stepping of an artificial protein walker along a DNA track”.
